experiment: melting temperature; melt of duplexes; conditions: sodium 0.0675 M; strand 1 µM

Row | Substance | Tm [°C]
1 | CGACGTGCGTGATGTGCTG+CAGCACATGCTGCACGTCG ((((((((...((((((((+))))))))...)))))))) | 49.8
2 | CGACGTGCATGATGTGCTG+CAGCACATCCAGCACGTCG ((((((((..(((((((((+)))))))))..)))))))) | 53.6
3 | CGACGTGCACCATGTGCTG+CAGCACATTCGGCACGTCG ((((((((...((((((((+))))))))...)))))))) | 42.6
4 | CGACGTGCCTCATGTGCTG+CAGCACATGATGCACGTCG ((((((((.((((((((((+)))))))))).)))))))) | 56.7
5 | CGACGTGCAAAATGTGCTG+CAGCACATAGAGCACGTCG ((((((((...((((((((+))))))))...)))))))) | 48.9
6 | CGACGTGCAACATGTGCTG+CAGCACATAGGGCACGTCG ((((((((...((((((((+))))))))...)))))))) | 49.1
7 | CGACGTGCTATATGTGCTG+CAGCACATTCCGCACGTCG ((((((((...((((((((+))))))))...)))))))) | 47.8
8 | CGACGTGCTCAATGTGCTG+CAGCACATGTAGCACGTCG (((((((((..((((((((+))))))))..))))))))) | 52.8
9 | CGACGTGCCTCATGTGCTG+CAGCACATGGCGCACGTCG ((((((((..(((((((((+)))))))))..)))))))) | 52.5
10 | CGACGTGCCTAATGTGCTG+CAGCACATAAAGCACGTCG ((((((((.(.((((((((+)))))))).).)))))))) | 50.3
11 | CGACGTGCTGCATGTGCTG+CAGCACATCCCGCACGTCG ((((((((.(.((((((((+)))))))).).)))))))) | 49.9
12 | CGACGTGCCCGATGTGCTG+CAGCACATAGCGCACGTCG ((((((((.(.((((((((+)))))))).).)))))))) | 50.8
13 | CGACGTGCTCAATGTGCTG+CAGCACATTCTGCACGTCG ((((((((..(((((((((+)))))))))..)))))))) | 50.8
14 | CGACGTGCGCAATGTGCTG+CAGCACATCCTGCACGTCG ((((((((...((((((((+))))))))...)))))))) | 49.2
15 | CGACGTGCGTCATGTGCTG+CAGCACATGACGCACGTCG (((((((((((((((((((+))))))))))))))))))) | 66.4
16 | CGACGTGCCGCATGTGCTG+CAGCACATCATGCACGTCG ((((((((...((((((((+))))))))...)))))))) | 48.6
17 | CGACGTGCAGCATGTGCTG+CAGCACATATAGCACGTCG ((((((((...((((((((+))))))))...)))))))) | 46.3
18 | CGACGTGCGCAATGTGCTG+CAGCACATGGAGCACGTCG ((((((((.(.((((((((+)))))))).).)))))))) | 60.2
19 | CGACGTGCAATATGTGCTG+CAGCACATGGAGCACGTCG ((((((((...((((((((+))))))))...)))))))) | 51
20 | CGACGTGCCCAATGTGCTG+CAGCACATATCGCACGTCG ((((((((...((((((((+))))))))...)))))))) | 47.1
21 | CGACGTGCCCCATGTGCTG+CAGCACATGTCGCACGTCG ((((((((..(((((((((+)))))))))..)))))))) | 51.2
22 | CGACGTGCAGAATGTGCTG+CAGCACATTCAGCACGTCG ((((((((.((((((((((+)))))))))).)))))))) | 57.9
23 | CGACGTGCGTTATGTGCTG+CAGCACATGGAGCACGTCG ((((((((...((((((((+))))))))...)))))))) | 54.8
24 | CGACGTGCGAAATGTGCTG+CAGCACATGCCGCACGTCG (((((((((..((((((((+))))))))..))))))))) | 56

Row | Substance | Tm [°C]
25 | CGACGTGCCTTATGTGCTG+CAGCACATGTAGCACGTCG ((((((((...((((((((+))))))))...)))))))) | 49.1
26 | CGACGTGCCCAATGTGCTG+CAGCACATTCGGCACGTCG (((((((((.(((((((((+))))))))).))))))))) | 55.8
27 | CGACGTGCGGGATGTGCTG+CAGCACATAAGGCACGTCG ((((((((...((((((((+))))))))...)))))))) | 51.1
28 | CGACGTGCGGAATGTGCTG+CAGCACATGCTGCACGTCG ((((((((.(.((((((((+)))))))).).)))))))) | 54.7
29 | CGACGTGCCAAATGTGCTG+CAGCACATTCCGCACGTCG ((((((((..(((((((((+)))))))))..)))))))) | 50.1
30 | CGACGTGCAATATGTGCTG+CAGCACATGTAGCACGTCG ((((((((.(.((((((((+)))))))).).)))))))) | 52
31 | CGACGTGCGATATGTGCTG+CAGCACATATGGCACGTCG ((((((((.((((((((((+)))))))))).)))))))) | 56.5
32 | CGACGTGCTGAATGTGCTG+CAGCACATTACGCACGTCG ((((((((..(((((((((+)))))))))..)))))))) | 52.7
33 | CGACGTGCGCAATGTGCTG+CAGCACATTTCGCACGTCG (((((((((.(((((((((+))))))))).))))))))) | 57.5
34 | CGACGTGCGGGATGTGCTG+CAGCACATTATGCACGTCG ((((((((...((((((((+))))))))...)))))))) | 51.8
35 | CGACGTGCACTATGTGCTG+CAGCACATCCTGCACGTCG (((((((((..((((((((+))))))))..))))))))) | 44.9
36 | CGACGTGCAGCATGTGCTG+CAGCACATAGGGCACGTCG ((((((((...((((((((+))))))))...)))))))) | 46.4
37 | CGACGTGCAACATGTGCTG+CAGCACATGCTGCACGTCG (((((((((.(((((((((+))))))))).))))))))) | 56.9
38 | CGACGTGCACGATGTGCTG+CAGCACATCCAGCACGTCG ((((((((..(((((((((+)))))))))..)))))))) | 50.6
39 | CGACGTGCCGTATGTGCTG+CAGCACATATCGCACGTCG ((((((((..(((((((((+)))))))))..)))))))) | 51.8
40 | CGACGTGCACCATGTGCTG+CAGCACATCCAGCACGTCG ((((((((...((((((((+))))))))...)))))))) | 42.2
41 | CGACGTGCCTCATGTGCTG+CAGCACATAGTGCACGTCG ((((((((...((((((((+))))))))...)))))))) | 45.9
42 | CGACGTGCCGTATGTGCTG+CAGCACATACTGCACGTCG ((((((((.((((((((((+)))))))))).)))))))) | 56.9
43 | CGACGTGCGATATGTGCTG+CAGCACATAGAGCACGTCG ((((((((..(((((((((+)))))))))..)))))))) | 58.5
44 | CGACGTGCGACATGTGCTG+CAGCACATACAGCACGTCG ((((((((...((((((((+))))))))...)))))))) | 53.1
45 | CGACGTGCCGTATGTGCTG+CAGCACATGGAGCACGTCG ((((((((...((((((((+))))))))...)))))))) | 50.8
46 | CGACGTGCAGAATGTGCTG+CAGCACATATAGCACGTCG ((((((((...((((((((+))))))))...)))))))) | 50.4
47 | CGACGTGCGTCATGTGCTG+CAGCACATTCGGCACGTCG ((((((((...((((((((+))))))))...)))))))) | 48.7
48 | CGACGTGCGTCATGTGCTG+CAGCACATATGGCACGTCG ((((((((...((((((((+))))))))...)))))))) | 49.8

Row | Substance | Tm [°C]
49 | CGACGTGCATAATGTGCTG+CAGCACATGCGGCACGTCG ((((((((...((((((((+))))))))...)))))))) | 48.7
50 | CGACGTGCATTATGTGCTG+CAGCACATCTTGCACGTCG (((((((((..((((((((+))))))))..))))))))) | 51.1
51 | CGACGTGCAGGATGTGCTG+CAGCACATCCTGCACGTCG (((((((((((((((((((+))))))))))))))))))) | 66
52 | CGACGTGCTGTATGTGCTG+CAGCACATCCCGCACGTCG ((((((((.(.((((((((+)))))))).).)))))))) | 49.4
53 | CGACGTGCTCCATGTGCTG+CAGCACATTCAGCACGTCG (((((((((..((((((((+))))))))..))))))))) | 48.7
54 | CGACGTGCTTGATGTGCTG+CAGCACATATAGCACGTCG (((((((((..((((((((+))))))))..))))))))) | 54
55 | CGACGTGCGATATGTGCTG+CAGCACATGGCGCACGTCG (((((((((..((((((((+))))))))..))))))))) | 57.4
56 | CGACGTGCATAATGTGCTG+CAGCACATCAGGCACGTCG ((((((((.(.((((((((+)))))))).).)))))))) | 50.2
57 | CGACGTGCGTAATGTGCTG+CAGCACATCGAGCACGTCG ((((((((...((((((((+))))))))...)))))))) | 53.1
58 | CGACGTGCCGTATGTGCTG+CAGCACATAGCGCACGTCG ((((((((..(((((((((+)))))))))..)))))))) | 52.7
59 | CGACGTGCAATATGTGCTG+CAGCACATAACGCACGTCG ((((((((..(((((((((+)))))))))..)))))))) | 50.7
60 | CGACGTGCAACATGTGCTG+CAGCACATATGGCACGTCG ((((((((.(.((((((((+)))))))).).)))))))) | 49.2
61 | CGACGTGCTCTATGTGCTG+CAGCACATCCTGCACGTCG ((((((((...((((((((+))))))))...)))))))) | 47.8
62 | CGACGTGCAGGATGTGCTG+CAGCACATCGTGCACGTCG (((((((((.(((((((((+))))))))).))))))))) | 58.3
63 | CGACGTGCCCTATGTGCTG+CAGCACATAAGGCACGTCG (((((((((.(((((((((+))))))))).))))))))) | 55.6
64 | CGACGTGCGTTATGTGCTG+CAGCACATTGGGCACGTCG ((((((((...((((((((+))))))))...)))))))) | 50.3
65 | CGACGTGCTTAATGTGCTG+CAGCACATGATGCACGTCG ((((((((.(.((((((((+)))))))).).)))))))) | 53
66 | CGACGTGCCAGATGTGCTG+CAGCACATTAAGCACGTCG ((((((((...((((((((+))))))))...)))))))) | 50.7
67 | CGACGTGCACTATGTGCTG+CAGCACATACGGCACGTCG ((((((((..(((((((((+)))))))))..)))))))) | 46
68 | CGACGTGCTGGATGTGCTG+CAGCACATCGCGCACGTCG ((((((((..(((((((((+)))))))))..)))))))) | 54.8
69 | CGACGTGCTCAATGTGCTG+CAGCACATATGGCACGTCG ((((((((...((((((((+))))))))...)))))))) | 50.5
70 | CGACGTGCCAAATGTGCTG+CAGCACATTTGGCACGTCG (((((((((((((((((((+))))))))))))))))))) | 64.5
71 | CGACGTGCATTATGTGCTG+CAGCACATAAAGCACGTCG ((((((((.((((((((((+)))))))))).)))))))) | 54.6
72 | CGACGTGCCGTATGTGCTG+CAGCACATGATGCACGTCG ((((((((...((((((((+))))))))...)))))))) | 49.2

Source: the array DNA melting data of Ke et al.
